Publication PMC10579300

Molecular target: SHP2 (UniProt P35235)
Assay: co-immunoprecipitation, Western blot
Details: reference: LAIR1 wild type; sites Y251,Y281

binding against the reference: weaker
Substance: LAIR1 (from UniProt Q6GTX8) LAIR1 Y251/281F
